{
  "source": "patent US20200109446A1",
  "key": {"[1]": {"tested_on": "T. fusca Type I-E CRISPR-Cas (Cascade) effector complex"}, "[2]": {"molecular_target": "Cascade lacking the Cse1 subunit (T. fusca)", "assay": "EMSA, target DNA with a mismatch to the crRNA at position +1"}, "[3]": {"molecular_target": "Cascade lacking the Cse1 subunit (T. fusca)", "assay": "EMSA, target DNA with a changed PAM and a mismatch at position +1"}},
  "data": [
    {"substance": "T. fusca Cas3", "values": [
      {"measurement": "Cas3 nuclease activity", "setting": "[1]", "value": "impaired Cas3 recruitment also reduced Cas3 nuclease activity when ATP and Co^+2 were added to the reaction mixtures"}
    ]},
    {"substance": "free Cse1 (T. fusca)", "values": [
      {"measurement": "percent of Cascade complexes converted to the faster-migrating species (Cascade lacking Cse1)", "setting": "[2]", "value": 80, "unit": "%"},
      {"measurement": "percent of Cascade complexes converted to the faster-migrating species (Cascade lacking Cse1)", "setting": "[3]", "value": 100, "unit": "%"}
    ]}
  ]
}
